Reference: patent publication US20240254222A1 (Bayer, published 2024)

T1: human wild-type Sema3A of SEQ ID NO: 600, expressed by HEK293 cells (human, UniProt Q14563 22-771, limits assumed)
T1 sequence: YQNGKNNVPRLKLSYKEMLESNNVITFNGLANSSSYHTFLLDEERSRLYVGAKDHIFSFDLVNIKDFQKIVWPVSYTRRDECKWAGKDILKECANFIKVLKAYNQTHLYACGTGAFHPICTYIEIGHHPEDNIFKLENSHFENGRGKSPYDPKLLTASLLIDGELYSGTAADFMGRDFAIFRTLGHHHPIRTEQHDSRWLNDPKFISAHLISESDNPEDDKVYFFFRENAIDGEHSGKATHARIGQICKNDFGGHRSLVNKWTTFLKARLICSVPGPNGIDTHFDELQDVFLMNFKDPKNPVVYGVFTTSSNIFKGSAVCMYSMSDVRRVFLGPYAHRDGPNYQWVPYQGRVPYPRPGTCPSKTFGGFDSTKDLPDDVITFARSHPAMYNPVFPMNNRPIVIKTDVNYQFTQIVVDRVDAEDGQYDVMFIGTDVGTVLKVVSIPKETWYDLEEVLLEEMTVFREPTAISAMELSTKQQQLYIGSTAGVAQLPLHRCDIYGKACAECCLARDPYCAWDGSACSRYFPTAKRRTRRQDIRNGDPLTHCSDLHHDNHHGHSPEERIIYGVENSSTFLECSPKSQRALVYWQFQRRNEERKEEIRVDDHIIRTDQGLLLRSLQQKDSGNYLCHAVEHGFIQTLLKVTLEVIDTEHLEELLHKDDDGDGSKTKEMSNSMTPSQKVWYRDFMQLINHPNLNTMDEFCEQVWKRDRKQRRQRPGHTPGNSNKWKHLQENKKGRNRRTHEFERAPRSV

T2: Cyno Semaphorin3A-Sema Domain, TPP-19122 (cynomolgus (Macaca fascicularis), UniProt Q63548 21-569 (rat entry), limits assumed)
T2 construct: produced inhouse
T2 chain: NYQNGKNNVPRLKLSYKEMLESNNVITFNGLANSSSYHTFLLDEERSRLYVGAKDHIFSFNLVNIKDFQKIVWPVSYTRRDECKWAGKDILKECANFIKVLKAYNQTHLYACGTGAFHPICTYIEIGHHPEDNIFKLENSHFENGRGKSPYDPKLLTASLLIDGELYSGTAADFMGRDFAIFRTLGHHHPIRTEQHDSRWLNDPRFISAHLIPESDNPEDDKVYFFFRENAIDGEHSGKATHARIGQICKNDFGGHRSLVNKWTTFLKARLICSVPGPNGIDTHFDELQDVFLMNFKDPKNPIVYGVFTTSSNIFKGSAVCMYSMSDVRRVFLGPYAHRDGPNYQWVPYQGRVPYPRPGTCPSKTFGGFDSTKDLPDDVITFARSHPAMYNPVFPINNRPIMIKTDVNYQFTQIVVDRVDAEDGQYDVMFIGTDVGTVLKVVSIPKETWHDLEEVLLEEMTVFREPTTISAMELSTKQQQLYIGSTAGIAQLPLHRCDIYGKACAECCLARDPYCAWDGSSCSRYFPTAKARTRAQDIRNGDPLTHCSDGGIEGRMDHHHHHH


Tests used:
[1] = target: T1, human wild-type Sema3A of SEQ ID NO: …; experiment: cell-based or functional assay
[2] = target: T2, Cyno Semaphorin3A-Sema Domain, TPP-19122; experiment: SPR, captured antibody, Sema3A domain analyte
Procedure, shortened: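 Kinetics fitted to a 1:1 Langmuir model after double referencing; glycine pH 2.0 regeneration. Sema3A domain analytes (several species) ran at […]-3.125 nM multi-cycle or single 100 nM; Fc-tagged Sema3A at 1.56-200 nM over Fab-captured antibody, otherwise Fc capture. Buffer HBS P+ plus 300 mM NaCl, CaCl₂, MgCl₂, BSA, 25° C.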

| Binder | EC50 (pM), HUVEC repulsion assay, second experiment [1] [pM] | Kd [2] [nM] | binding result [2] |
| --- | --- | --- | --- |
| TPP-17755 (antibody, human IgG1, lambda, V domains shown, also called Samsung; Samsung Prior Art F11) VH: EVQLLESGGGLVQTGGSLRLSCAASGFTFSDYAMSWVRQAPGKGLEWVSWIYYDSGSKYYADSVKGRFTISRDNSKNTLYLQMNSLRAEDTAVYYCAKLNGDFDYWGQGTLVTVSS VL: QSVLTQPPSASGTPGQRVTISCSGSSSNIGNNDVSWYQQLPGTAPKLLIYADSHRPSGVPDRFSGSKSGTSASLAISGLRSEDEADYYCGAWDSSLSGYVFGGGTKLTVLG | 2790 | 14 | – |
| TPP-23337 (antibody, human IgG4 S228P, lambda, V domains shown) VH: EVQLLESGGGLVQPGGSLRLSCAASGFTFSSYAMSWVRQAPGKGLEWVSAIGYGGDTYYADSVKGRFTISRDNSKNTLYLQMNSLRAEDTAVYYCARRDDYTSRDAFDYWGQGTLVTVSS VL: not shown | – | 0.026 | – |
| TPP-23298 (antibody, human IgG4 S228P, lambda, V domains shown) VH: EVQLLESGGGLVQPGGSLRLSCAASGFTFYSYAMSWVRQAPGKGLEWVSAIGTGGDTYYADSVKGRFTISRDNSKNTLYLQMNSLRAEDTAVYYCARRDDYTSRDAFDYWGQGTLVTVSS VL: not shown | 54 | 0.078 | – |
| TPP-23334 (antibody, human IgG4 S228P, lambda, V domains shown) VH: EVQLLESGGGLVQPGGSLRLSCAASGFTFSSYAMSWVRQAPGKGLEWVSAIGYGGDTYYADSVKGRFTISRDNSKNTLYLQMNSLRAEDTAVYYCARRDDYTSRDAFDYWGQGTLVTVSS VL: not shown | – | 0.015 | – |
| TPP-23338 (antibody, human IgG4 S228P, lambda, V domains shown) VH: EVQLLESGGGLVQPGGSLRLSCAASGFTFSSYAMSWVRQAPGKGLEWVSAIGYGGDTYYADSVKGRFTISRDNSKNTLYLQMNSLRAEDTAVYYCARRDDYTSRDAFDYWGQGTLVTVSS VL: not shown | – | 0.042 | – |
| TPP-23340 (antibody, human IgG4 S228P, lambda, V domains shown) VH: EVQLLESGGGLVQPGGSLRLSCAASGFTFSSYAMSWVRQAPGKGLEWVSAIGYGGDTYYADSVKGRFTISRDNSKNTLYLQMNSLRAEDTAVYYCARRDDYTSRDAFDYWGQGTLVTVSS VL: not shown | – | 0.06 | – |
| TPP-23341 (antibody, human IgG4 S228P, lambda, V domains shown) VH: EVQLLESGGGLVQPGGSLRLSCAASGFTFSSYAMSWVRQAPGKGLEWVSAIGYGGDTYYADSVKGRFTISRDNSKNTLYLQMNSLRAEDTAVYYCARRDDYTSRDAFDYWGQGTLVTVSS VL: not shown | – | 0.087 | – |
| TPP-23345 (antibody, human IgG4 S228P, lambda, V domains shown) VH: EVQLLESGGGLVQPGGSLRLSCAASGFTFSSYAMSWVRQAPGKGLEWVSAIGYGGDTYYADSVKGRFTISRDNSKNTLYLQMNSLRAEDTAVYYCARRDDYTSRDAFDYWGQGTLVTVSS VL: not shown | – | 0.062 | – |
| TPP-23346 (antibody, human IgG4 S228P, lambda, V domains shown) VH: EVQLLESGGGLVQPGGSLRLSCAASGFTFYSYAMLWVRQAPGKGLEWVSAIGTGGDTYYADSVKGRFTISRDNSKNTLYLQMNSLRAEDTAVYYCARRDDYTSRDAFDYWGQGTLVTVSS VL: not shown | – | 0.061 | – |
| TPP-23347 (antibody, human IgG4 S228P, lambda, V domains shown) VH: EVQLLESGGGLVQPGGSLRLSCAASGFTFYSYAMLWVRQAPGKGLEWVSAIGTGGDTYYADSVKGRFTISRDNSKNTLYLQMNSLRAEDTAVYYCARRDDYTSRDAFDYWGQGTLVTVSS VL: not shown | – | 0.054 | – |
| TPP-23373 (antibody, human IgG4 S228P, lambda, V domains shown) VH: EVQLLESGGGLVQPGGSLRLSCAASGFTFYSYAMSWVRQAPGKGLEWVSAIGYGGDTYYADSVKGRFTISRDNSKNTLYLQMNSLRAEDTAVYYCARRDDYTSRDAFDYWGQGTLVTVSS VL: not shown | – | 0.072 | – |
| TPP-23374 (antibody, human IgG4 S228P, lambda, V domains shown) VH: EVQLLESGGGLVQPGGSLRLSCAASGFTFYSYAMSWVRQAPGKGLEWVSAIGYGGDTYYADSVKGRFTISRDNSKNTLYLQMNSLRAEDTAVYYCARRDDYTSRDAFDYWGQGTLVTVSS VL: not shown | – | < 0.003 | – |
| TPP-23375 (antibody, human IgG4 S228P, lambda, V domains shown) VH: EVQLLESGGGLVQPGGSLRLSCAASGFTFYSYAMSWVRQAPGKGLEWVSAIGYGGDTYYADSVKGRFTISRDNSKNTLYLQMNSLRAEDTAVYYCARRDDYTSRDAFDYWGQGTLVTVSS VL: not shown | – | 0.045 | – |
| TPP-15370 (antibody, human IgG1, lambda, V domains shown, human IgG1; also called IgG1, hit from panning; parental mAb) VH: EVQLLESGGGLVQPGGSLRLSCAASGFTFSSYGMHWVRQAPGKGLEWVSAIGTGGDTYYADSVMGRFTISRDNSKNTLYLQMNSLRAEDTAVYYCARRDDYTSRDAFDVWGQGTLVTVSS VL: not shown | – | 40 | – |
| TPP-30788 (antibody, human IgG1, kappa, V domains shown, prior art, WO 2020/225400; also called BI clone I; Böhringer (BI) Clone I) VH: EVQLVESGGGLVQPGGSLRLSCAASGFTFSSYYMSWVRQAPGKGLEWVSTIIKSGGYAYYPDSVKDRFTISRDNSKNTLYLQMSSLRAEDTAVYYCVRGGQGAMDYWGQGTTVTVSS VL: EIVLTQSPATLSLSPGERATLSCRASQSIGDYLHWYQQKPGQAPRLLIKYASQSISGIPARFSGSGSGTDFTLTITSLEPEDFAVYYCQQGYSFPYTFGGGTKLEIKR | 104 | 0.078 | – |
| TPP-30789 (antibody, human IgG1, kappa, V domains shown, prior art, WO 2020/225400; also called BI clone II; Böhringer (BI) Clone II) VH: EVQLVESGGGLVQPGGSLRLSCAASGFPFSSYYMSWVRQAPGKGLEWVSTIIKSGGYAYYPDSVKDRFTISRDNSKNTLYLQMSSLRAEDTAVYYCVRGGQGAMDYWGQGTTVTVSS VL: EIVLTQSPATLSLSPGERATLSCRASQSIGDYLHWYQQKPGQAPRLLIKYASQSISGIPARFSGSGSGTDFTLTITSLEPEDFAVYYCQQGYSFPYTFGGGTKLEIKR | 165 | 0.079 | – |
| TPP-30790 (antibody, human IgG1, kappa, V domains shown, prior art, WO 2020/225400; also called BI clone III; Böhringer (BI) Clone III) VH: EVQLVESGGGLVQLGGSLRLSCAASGFTFSSYYMSWVRQAPGKGLEWVSTIIKSGGYAYYPDSVKDRFTISRDNSKNTLYLQMNSLRAEDTAVYYCVKGGQGAMDYWGQGTTVTVSS VL: EIVLTQSPATLSLSPGERATLSCRASQSIGDYLHWYQQKPGQAPRLLIYYASQSISGIPARFSGSGSGTDFTLTISSLEPEDFAVYYCQQGYSFPYTFGGGTKLEIKR | 121 | 0.077 | – |
| TPP-30791 (antibody, human IgG1, kappa, V domains shown, prior art, WO 2020/225400; also called BI clone IV; Böhringer (BI) Clone IV) VH: EVQLVESGGGLLQLGGSLRLSCAASGFTFSSYYMSWVRQAPGKGLEWVSTIIKSGGYAYYPDSVKDRFTISRDNSKNTLNLQMNSLRAEDTAVYYCVKGGQGAMDYWGQGTTVTVSS VL: EIVLTQSPATLSLSPGERATLSCRASQSIGDYLHWYQQKPGQAPRLLIKYASQSISGIPARFSGSGSGTDFTLTISSLEPEDFAVYYCQQGYSFPYTFGGGTKLEIKR | 221 | 0.057 | – |
| TPP-11489 (antibody, human IgG1, lambda, human IgG1; also called Chiome; Chiome Prior Art (hIgG1)) heavy: not shown light: SYELTQPPSVSVSPGQTARITCSGGGSYTGSYYYGWYQQKPGQAPVTVIYYNNKRPSDIPERFSGSLSGTTNTLTISGVQAEDEADYYCGSADNSGDAFGTGTKVTVLGQPKAAPSVTLFPPSSEELQANKATLVCLISDFYPGAVTVAWKADSSPVKAGVETTTPSKQSNNKYAASSYLSLTPEQWKSHRSYSCQVTHEGSTVEKTVAPTECS | > 20000 | 63 | – |
| TPP-15374 (antibody, human IgG1, lambda, V domains shown, human IgG1; also called IgG1, hit from panning; parental mAb) VH: EVQLLESGGGLVQPGGSLRLSCAASGFTFSSYEMNWVRQAPGKGLEWVSGISWNSGSIGYADSVKGRFTISRDNSKNTLYLQMNSLRAEDTAVYYCARSGYSSSWFDPDFDYWGQGTLVTVSS VL: QSVLTQPPSASGTPGQRVTISCTGSSSNIGAGYDVHWYQQLPGTAPKLLIYGNSNRPSGVPDRFSGSKSGTSASLAISGLRSEDEADYYCSSYAGSNPYVVFGGGTKLTVLG | – | 46 | – |
| TPP-30792 (antibody, human IgG1, lambda, V domains shown, IgG1; prior art, WO 2020/261281; also called 3H4 Univ Ramot; 3H4 (Ramot) Clon I) V domain 1: EVQLLESGGGLVQPGGSLRLSCAASGFTFRSYAVHWVRQAPGKGLEWVSSTEGSGVGTSYTDSVKGRFTISRDNSKNTLYLQMNSLRAEDTAVYYCARMLGGGNPLDYLDYWGQGTLVTVSS V domain 2: QSVLTQPPSASGTPGQRVTISCSGSSSNLGEGYDVHWYQQLPGKAPKLLIYYSDFRPSGVSDRFSGSKSGTSASLAISGLQSEDEADYYCAAWDDSLSSQVFGGGTQVTVLG | – | – | no binding |
